This is an account of results in patent publication US8124375B2, “Geraniol synthase, methods of production and uses thereof” (The Regents Of The University Of Michigan, priority 2003, dated 2012).

A short description of series [1]: GES enzyme assay (conversion of [1-3H]-GDP, hexane-extractable product counted by scintillation). The following applies: GES purification from gland of basil “Sweet Dani” cultivar. In kind it is biochemical. Here is the method: GES activity was assayed by incubating 5 μl of the enzyme sample in a final volume of 50 μl buffer containing 50 mM Hepes-KOH, pH 8.0, 1 mM DTE, 0.5 mM MnCI2, 20 mM MgCl2, 10% glycerol and 54 μM [1-3H]-GDP (specific activity 20 Ci/mol, American Radiolabeled Chemicals, St. Louis, Mo.). After incubation for 30 mm at […], 160 μl hexane was added to the tube, and vortexed briefly and centrifuged to separated the phases. The hexane layer was directly placed into a scintillation vial containing 2 ml of nonaqueous scintillation fluid (Econo-Safe, Research Products International, Mount Prospect Ill.). This extraction procedure was repeated twice and the total hexane phase was counted by Liquid Scintillation counter (LS-6500 model, Beckman Coulter, Fullerton, Calif.). Boiled enzyme extracts were used as controls.

Series [2] is described as follows: Identification of enzymatic products of GES with GDP by SPME GC-MS. The format is biochemical. The following applies: SPME gas chromatogram of the reaction solution, peak identified by MS. As to the method: GES enzyme assays were also performed by adding 100 μl of enzyme solution with 900 μl assay solution containing 54 μM non-radioactive GDP (Echelon Research Laboratories, Salt Lake City, Utah) and the same buffer described above. The reactions were carried out in an 8 mL DuPont autosampler vial with a white solid-top polypropylene cap (Alltech, Deerfield, Ill.). After letting the reaction proceed for 2-4 hr at 32° C., the liberated compounds were collected with a solid-phase microextraction (SPME) device PDMS-100 with a polydimethylsiloxane fiber (Supelco, Bekkefonte, Pa.) by inserting the fiber into the tube and leaving it in for 20 mim at 42° C. After this incubation step, the solid-phase microextraction fiber was directly injected into the GC-MS.

B1: Superose12: geraniol synthase purified from basil glands after Superose 12 size exclusion chromatography (protein, UniProt Q6USK1 64-567, looked up)
Geraniol synthase, …: QHMEESSSKRREYLLEETTRKLQRNDTESVEKLKLIDNIQQLGIGYYFEDAINAVLRSPFSTGEEDLFTAALRFRLLRHNGIEISPEIFLKFKDERGKFDESDTLGLLSLYEASNLGVAGEEILEEAMEFAEARLRRSLSEPAAPLHGEVAQALDVPRHLRMARLEARRFIEQYGKQSDHDGDLLELAILDYNQVQAQHQSELTEIIRWWKELGLVDKLSFGRDRPLECFLWTVGLLPEPKYSSVRIELAKAISILLVIDDIFDTYGEMDDLILFTDAIRRWDLEAMEGLPEYMKICYMALYNTTNEVCYKVLRDTGRIVLLNLKSTWIDMIEGFMEEAKWFNGGSAPKLEEYIENGVSTAGAYMAFAHIFFLIGEGVTHQNSQLFTQKPYPKVFSAAGRILRLWDDLGTAKEEQERGDLASCVQLFMKEKSLTEEEARSRILEEIKGLWRDLNGELVYNKNLPLSIIKVALNMARASQVVYKHDQDTYFSSVDNYVDALFFTQ
With B1, the Total activity in series [1] (activity of the fraction after the named purification step) is reported as 337.2 ptat. For the same molecule, the Specific activity in series [1] (activity per mg protein after the named purification step) was 6244.2 pkat/mg. In addition, the “Products of the reaction catalyzed by purified GES with GDP” value in series [2] is “Only a single peak was observed, identified as geraniol”.
